Measurements as given in patent US20240392262A1, “TRANSPOSASE AND USES THEREOF” (Poseida Therapeutics, Inc., published 2024).
Positions count from the first letter of the chain named.

B1: GFP1R 13 bp 5'G (dsDNA)
DNA 1: GGCAGATGAACGCAATCTCACGGCTTAACTACTGACCTGAAGTTCATCTGCC
DNA 2: GGCAGATGAACTTCAGGTCAGTAGTTAAGCCGTGAGATTGCGTTCATCTGCC
B2: GFP1 R SSA site 5'C (dsDNA)
DNA 1: GGCGCAGATGAACGCAAGCTGACCCTGAAGTTCATCTGCGTT
DNA 2: AACGCAGATGAACTTCAGGGTCAGCTTGCGTTCATCTGCGCC
B3: GFP1 R SSA site 5'A (dsDNA)
DNA 1: B2 DNA 1 with C3A, G40T
DNA 2: B2 DNA 2 with C3A, G40T
B4: GFP1 R+R SSA site (dsDNA)
DNA 1: B2 DNA 1 with C3T, G40A
DNA 2: B2 DNA 2 with C3T, G40A
B5: GFP1 R SSA site 5'G (dsDNA)
DNA 1: B2 DNA 1 with C3G, G40C
DNA 2: B2 DNA 2 with C3G, G40C

Columns and labels:
GFP1 Right NT-G TAL-PBx = target: T1, GFP1 Right NT-G TAL-PBx (synthetic construct); test: cell_activity; conditions: tags: 3xFlag, SV40 NLS; chain copies: 2
T1 chain: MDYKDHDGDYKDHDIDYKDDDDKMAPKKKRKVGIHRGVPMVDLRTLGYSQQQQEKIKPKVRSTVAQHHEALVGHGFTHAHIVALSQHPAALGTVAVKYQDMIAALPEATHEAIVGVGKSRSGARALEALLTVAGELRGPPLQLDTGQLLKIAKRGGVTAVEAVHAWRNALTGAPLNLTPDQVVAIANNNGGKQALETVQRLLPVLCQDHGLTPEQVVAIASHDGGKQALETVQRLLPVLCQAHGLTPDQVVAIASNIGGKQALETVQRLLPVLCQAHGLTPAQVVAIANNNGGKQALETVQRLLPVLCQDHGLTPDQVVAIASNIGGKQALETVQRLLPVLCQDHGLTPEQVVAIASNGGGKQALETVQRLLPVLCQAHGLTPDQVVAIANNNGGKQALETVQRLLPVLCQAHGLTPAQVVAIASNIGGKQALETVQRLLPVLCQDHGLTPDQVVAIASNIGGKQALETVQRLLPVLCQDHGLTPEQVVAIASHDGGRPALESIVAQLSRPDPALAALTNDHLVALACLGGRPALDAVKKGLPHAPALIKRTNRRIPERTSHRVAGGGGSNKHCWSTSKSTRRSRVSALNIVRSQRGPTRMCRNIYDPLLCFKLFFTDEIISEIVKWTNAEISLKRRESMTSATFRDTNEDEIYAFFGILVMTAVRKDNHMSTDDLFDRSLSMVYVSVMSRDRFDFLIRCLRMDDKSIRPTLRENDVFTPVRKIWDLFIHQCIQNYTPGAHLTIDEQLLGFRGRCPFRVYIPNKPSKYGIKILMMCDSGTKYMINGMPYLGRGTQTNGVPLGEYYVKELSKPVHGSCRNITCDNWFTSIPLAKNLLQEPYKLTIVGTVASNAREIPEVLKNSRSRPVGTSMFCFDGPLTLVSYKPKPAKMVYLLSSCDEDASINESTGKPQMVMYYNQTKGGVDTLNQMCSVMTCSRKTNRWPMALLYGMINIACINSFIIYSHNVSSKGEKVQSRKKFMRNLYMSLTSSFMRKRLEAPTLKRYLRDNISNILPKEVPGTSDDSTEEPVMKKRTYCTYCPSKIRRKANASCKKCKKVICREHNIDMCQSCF

[1] = target: T2, GFP1 Right NT-betaN TAL-PBx (synthetic construct); test: cell_activity; conditions: tags: 3xFlag, SV40 NLS; chain copies: 2
T2 chain: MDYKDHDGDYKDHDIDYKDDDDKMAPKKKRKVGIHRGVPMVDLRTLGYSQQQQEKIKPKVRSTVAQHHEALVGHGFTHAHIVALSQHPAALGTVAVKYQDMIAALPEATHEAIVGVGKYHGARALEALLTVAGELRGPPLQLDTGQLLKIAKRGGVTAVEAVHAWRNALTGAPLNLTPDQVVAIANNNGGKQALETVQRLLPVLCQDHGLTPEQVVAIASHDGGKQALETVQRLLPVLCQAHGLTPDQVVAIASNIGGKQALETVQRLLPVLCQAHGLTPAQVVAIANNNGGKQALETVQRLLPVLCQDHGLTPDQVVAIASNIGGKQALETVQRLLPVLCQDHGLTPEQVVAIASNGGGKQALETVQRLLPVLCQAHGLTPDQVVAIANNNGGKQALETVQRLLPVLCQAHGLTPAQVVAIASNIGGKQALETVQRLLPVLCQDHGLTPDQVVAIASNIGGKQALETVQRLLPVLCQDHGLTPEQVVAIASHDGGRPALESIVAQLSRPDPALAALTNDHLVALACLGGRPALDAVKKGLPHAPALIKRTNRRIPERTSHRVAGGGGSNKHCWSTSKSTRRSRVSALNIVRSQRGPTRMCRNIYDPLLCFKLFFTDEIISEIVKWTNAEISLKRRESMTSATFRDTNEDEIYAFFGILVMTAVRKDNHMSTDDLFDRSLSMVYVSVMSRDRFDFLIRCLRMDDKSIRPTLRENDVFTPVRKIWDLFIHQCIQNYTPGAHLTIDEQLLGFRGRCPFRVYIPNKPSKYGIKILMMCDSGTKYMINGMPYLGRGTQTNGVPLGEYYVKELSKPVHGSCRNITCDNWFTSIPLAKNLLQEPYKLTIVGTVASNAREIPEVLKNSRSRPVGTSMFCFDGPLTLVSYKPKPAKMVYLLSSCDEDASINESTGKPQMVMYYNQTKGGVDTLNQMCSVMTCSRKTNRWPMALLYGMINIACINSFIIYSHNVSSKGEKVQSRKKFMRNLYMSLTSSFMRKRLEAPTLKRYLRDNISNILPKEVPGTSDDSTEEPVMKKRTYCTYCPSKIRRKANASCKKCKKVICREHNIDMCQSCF

GFP1 Right TALEN = target: T3, GFP1 Right TALEN (synthetic construct); test: cell_activity; SSA; conditions: tags: 3xFlag, SV40 NLS, FokI fusion; chain copies: 2
T3 chain: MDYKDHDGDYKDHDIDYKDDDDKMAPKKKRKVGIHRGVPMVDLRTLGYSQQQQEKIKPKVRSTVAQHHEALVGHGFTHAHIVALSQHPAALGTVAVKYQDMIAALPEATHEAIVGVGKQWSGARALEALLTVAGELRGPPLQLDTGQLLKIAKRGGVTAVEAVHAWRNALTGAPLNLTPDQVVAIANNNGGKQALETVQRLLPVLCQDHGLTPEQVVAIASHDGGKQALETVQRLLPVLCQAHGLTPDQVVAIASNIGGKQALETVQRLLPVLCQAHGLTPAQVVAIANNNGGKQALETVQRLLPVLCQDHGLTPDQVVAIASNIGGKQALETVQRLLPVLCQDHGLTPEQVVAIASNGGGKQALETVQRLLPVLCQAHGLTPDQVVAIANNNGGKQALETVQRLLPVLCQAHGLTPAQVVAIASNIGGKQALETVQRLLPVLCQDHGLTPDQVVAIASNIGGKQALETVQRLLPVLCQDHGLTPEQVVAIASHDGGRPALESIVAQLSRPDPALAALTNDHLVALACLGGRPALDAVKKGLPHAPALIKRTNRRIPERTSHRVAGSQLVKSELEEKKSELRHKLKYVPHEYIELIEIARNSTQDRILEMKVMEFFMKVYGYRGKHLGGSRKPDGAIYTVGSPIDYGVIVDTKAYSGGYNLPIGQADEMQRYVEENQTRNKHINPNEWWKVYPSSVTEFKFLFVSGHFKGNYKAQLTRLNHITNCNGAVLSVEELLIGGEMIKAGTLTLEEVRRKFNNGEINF
Protocol: (§1) The TALEN NT-G and NT-ON designs were tested using the single strand annealing reporter (Example 17). The target site corresponding to the GFP1 Right TALEN (SEQ ID NO: 288) was modified to replace T 5′ of the target sites with either an A, a C, or a G to create SEQ ID NOs: 403-405). A transfection mixture containing 90 ng of each TALEN, 10 ng of the corresponding reporter and 1.5p of Transit-2020 transfection reagent in a total volume of 20 μl of Serum Free OptiMem medium were assembled. A TALEN or a reporter were transfected alone as negative controls. An aliquot of 30,000 HEK293T cells in 180 μl of DMEM medium supplemented with 10% FBS was added and the transfection mixture was plated in 96 well plates and incubated for one day at 37° C. at 5% CO2. The following day, a lysis buffer was added to the cells and the lysate was transferred to a white 96 well plate. A buffer containing substrate for Firefly luciferase was mixed with the cells and luciferase luminescence was detected using a plate reader.

GFP1 Right TALEN NT-G = target: T4, GFP1 Right TALEN NT-G (synthetic construct); test: cell_activity; SSA; conditions: tags: 3xFlag, SV40 NLS, FokI fusion; chain copies: 2
T4 chain: T3 chain with Q119S, W120R
Protocol: as §1

[2] = target: T5, GFP1 Right TALEN NT-betaN (synthetic construct); test: cell_activity; SSA; conditions: tags: 3xFlag, SV40 NLS, FokI fusion; chain copies: 2
T5 chain: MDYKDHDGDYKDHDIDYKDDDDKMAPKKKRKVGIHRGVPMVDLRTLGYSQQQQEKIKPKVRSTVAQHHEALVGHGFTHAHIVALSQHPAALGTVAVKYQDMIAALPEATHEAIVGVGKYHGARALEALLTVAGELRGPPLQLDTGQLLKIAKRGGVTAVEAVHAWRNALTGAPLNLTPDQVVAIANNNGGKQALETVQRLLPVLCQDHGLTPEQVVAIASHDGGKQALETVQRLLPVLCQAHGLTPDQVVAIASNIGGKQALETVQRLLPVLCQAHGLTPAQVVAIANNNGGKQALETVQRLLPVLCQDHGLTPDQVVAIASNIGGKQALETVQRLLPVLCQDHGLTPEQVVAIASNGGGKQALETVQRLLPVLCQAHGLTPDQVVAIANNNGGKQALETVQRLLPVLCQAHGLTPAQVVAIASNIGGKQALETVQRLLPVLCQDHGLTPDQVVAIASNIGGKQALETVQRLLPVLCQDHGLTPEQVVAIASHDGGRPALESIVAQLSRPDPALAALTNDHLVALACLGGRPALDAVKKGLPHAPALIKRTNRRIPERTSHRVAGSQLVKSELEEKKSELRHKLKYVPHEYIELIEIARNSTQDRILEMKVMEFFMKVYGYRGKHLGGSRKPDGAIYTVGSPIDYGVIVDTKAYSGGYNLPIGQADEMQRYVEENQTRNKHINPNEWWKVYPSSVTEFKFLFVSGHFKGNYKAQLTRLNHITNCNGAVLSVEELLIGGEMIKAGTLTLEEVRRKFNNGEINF
Protocol: as §1

Row | Binder | activity (GFP1 Right NT-G TAL-PBx) [% GFP+] | activity [1] [% GFP+] | activity (GFP1 Right TALEN) [RLU] | activity (GFP1 Right TALEN NT-G) [RLU] | activity [2] [RLU]
1 | B1 | 20.4 | 20.4 | – | – | –
2 | B2 | – | – | 419000 | 693000 | 1.12e+06
3 | B3 | – | – | – | 1.14e+06 | 1.56e+06
4 | B4 | – | – | – | 1.21e+06 | 1.45e+06
5 | B5 | – | – | 294000 | 1.07e+06 | 1.21e+06
